Experiment [1] relates to E. coli, DH5alpha strain. The experiment is described as follows: Anti-microbial modified broth dilution assay with recombinant NCAMP-1. The format is cell-based. The settings on record: for MIC50 (MIC for 50% bactericidal activity): 2 h incubation, colony counts. As to the method:
(§1) The recombinant protein was examined for anti-microbial activity by a modified broth dilution assay. NCAMP-1 activity was tested against Gram positive (Micrococcus luteus, Streptococcus iniae) and Gram negative (E. coli, DH5alpha strain) microorganisms. S. iniae was grown and tested for susceptibility in Todd-Hewitt broth (THB) at 30° C. E. coli and M. luteus were grown and tested at 37° C. in Mueller-Hinton broth (MHB). Overnight cultures were diluted into fresh media and grown at the indicated temperature for 3-6 h. Cultures were diluted to 5000 CFUs (colony forming units)/ml in 10 mM sodium phosphate buffer (NAPB), supplemented to 10% wvith either MHB or THB. The relationship between A620 and CFUs was previously determined in our laboratory for each bacteria. Fifty microliters of bacteria (5000 CFUs) were added to an equal volume of NCAMP-1 (or control protein) diluted in 10 mM NAPB to the indicated protein concentration. Assay tubes were incubated at the appropriate temperatures for 2 h with shaking. Colony counts were then determined by plating serial dilutions of test cultures on the appropriate media. Results are expressed as CFUs/ml.
Background: Broth dilution looks for growth in wells or tubes with falling amounts of substance.

In experiment [2] the test system is Streptococcus iniae. Described as above. The settings on record: S. iniae. The format is cell-based. As to the method:
as §1

For experiment [3], the system named is GpC and CpG ODNs. Briefly: Southwestern (ODN) blot of recombinant NCAMP-1. Format: binding. The settings on record: Southwestern blotting, biotinylated ODNs, FIG. 13B. As to the method: Biotinylated ODNs were used to identify potential. DNA binding proteins in NCC membrane lysate preparations and to evaluate the ODN binding of recombinant NCAMP-1. Membrane lysates were prepared as indicated above. Purified recombinant NCAMP-1 was mixed with SDS-PAGE sample buffer (reducing) prior to electrophoresis. […] Membranes were blocked in Superblock (Pierce, Rockford Ill.) blocking solution with 0.05% Tween-20. ODN's were diluted in Superblock and added to membranes (1 h, room temperature). Membranes were washed (3×) in TBS with 0.5% Tween-20 (TBST). Neutraviden-HRP (Pierce) diluted in Superblock (minimum dilution 1:50000) was added and incubated for 30 min at room temperature. Blots were washed (3×) in TBST and were developed with enhanced chemiluminiscence (SuperSignal® West Pico Pierce, Rockford, Ill.).

In experiment [4] the test system is Micrococcus luteus. The experiment is described as follows: Anti-microbial assay, residual colony counts. Format: cell-based. As to conditions: M. luteus, 37 C, 2 h. As to the method: as §1, with “Fifty microliters of bacteria (5000 CFUs) were added to an equal volume of NCAMP-1 (or control protein) diluted in 10 mM NAPB to the indicated protein concentration. Assay tubes were incubated at the appropriate temperatures for 2 h with shaking.” left out
M. luteus were killed by full length recombinant NCAMP-1. […] After 2 hours, the OD620 was measured. Using a previously determined relationship of OD620 0.1=1.2×10^7 CFUs/ml, bacteria was diluted to 10^5 CFUs/ml in sodium phosphate buffer (pH8) supplemented with 10% with MH broth (assay buffer). […] Serial dilutions of each sample were plated onto MH agar plates and residual colony counts were determined. […]

With “NCAMP-d2: truncated recombinant NCAMP-1, aa 1-60 of SEQ ID NO:3 (MSAQAEETAPEAAAPVQPSQPAAKKKGPASKAKPASAEKKNKKKKGKGPGKYSQLVINAI; listed as Ictalurus punctatus)”, in experiment [1], the MIC50 concentration is 1.0 µM and the “MIC50 (MIC for 50% bactericidal activity)” value was 1.0 µM.

B1: NCAMP-d1: truncated recombinant NCAMP-1, aa 1-118 of SEQ ID NO:3 (protein, listed as Ictalurus punctatus)
chain: MSAQAEETAPEAAAPVQPSQPAAKKKGPASKAKPASAEKKNKKKKGKGPGKYSQLVINAIQTLGERNGSSLFKIYNEAKKVNWFDQQHGRVYLRYSIRALLQNDTLVQVKGLGANGSF
On to B1, for which, in experiment [1], the MIC50 concentration was found to be 0.63 µM and the “MIC50 (MIC for 50% bactericidal activity)” value turned out to be 0.63 µM.

B2: NCAMP-1: NCC cationic antimicrobial protein-1 from channel catfish, 203 amino acids, SEQ ID NO:3; recombinant His-tagged form expressed in E. coli (protein, listed as Ictalurus punctatus)
chain: MSAQAEETAPEAAAPVQPSQPAAKKKGPASKAKPASAEKKNKKKKGKGPGKYSQLVINAIQTLGERNGSSLFKIYNEAKKVNWFDQQHGRVYLRYSIRALLQNDTLVQVKGLGANGSFKLNKKKFIPRTKKSSVKPRKTAKPTKKPAKKAAKKKKRVSGVKKATPPPEKTSKPKKADKSPAVSAKKASKPKKAKQTKKTAKKT
modifications: His tag
notes: recombinant His-tagged form expressed in E. coli
For the molecule B2, the bactericidal activity result in experiment [2] (FIG. 17), in experiment [1] (FIG. 17) and in experiment [4] was “killed” throughout. For the same molecule, the “MIC50 (MIC for 50% bactericidal activity)” value in experiment [2] (2 h incubation, colony counts) was 0.86 µM; in experiment [1] it was 0.43 uM (SEQ ID NO: 3). Besides, the “ODN binding of recombinant protein” value in experiment [3] is “bind to GpC (SEQ ID NO:11) and CpG (SEQ ID NO:7)”.

The values are drawn from US8101714B2, “Teleost derived antimicrobial polypeptides” (The University of Georgia Research Foundation, Inc., priority 2004, dated 2012).
